Laboratory results taken from patent US20230151095A1 (published 2023).
Like-named read-outs stand apart in the source and are kept apart here. Each block holds one binder with its values, some of them ahead of it.

Key:
[1] = target: T1, XENP23311 (His-tagged NKG2D-Fc) (human, UniProt P26718 78-216); assay: Octet; bivalent format
T1 chain: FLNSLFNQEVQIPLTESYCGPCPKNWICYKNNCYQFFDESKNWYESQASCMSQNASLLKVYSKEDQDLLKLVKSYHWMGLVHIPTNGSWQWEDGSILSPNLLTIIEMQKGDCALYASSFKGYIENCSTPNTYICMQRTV

XENP38100 (1D2B4) [2] = assay: Octet
XENP38100 (1D2B4) [3] = assay: Octet; remark: listed apart in the source
NKG2D = target: T2, NKG2D (human, UniProt P26718 78-216)
T2 chain: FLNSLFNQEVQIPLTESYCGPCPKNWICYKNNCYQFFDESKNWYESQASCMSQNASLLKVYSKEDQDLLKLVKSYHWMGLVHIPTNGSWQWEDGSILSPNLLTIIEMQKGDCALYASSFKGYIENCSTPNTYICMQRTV

[4] = target: T1, XENP23311 (His-tagged NKG2D-Fc); assay: Biacore; steady state
[5] = target: T1, XENP23311 (His-tagged NKG2D-Fc); assay: Biacore; 1:1 Langmuir
B7H3 = target: T3, B7H3 (human, UniProt Q5ZPR3 29-466); assay: -; monovalent, 1+1 bispecific format
T3 chain: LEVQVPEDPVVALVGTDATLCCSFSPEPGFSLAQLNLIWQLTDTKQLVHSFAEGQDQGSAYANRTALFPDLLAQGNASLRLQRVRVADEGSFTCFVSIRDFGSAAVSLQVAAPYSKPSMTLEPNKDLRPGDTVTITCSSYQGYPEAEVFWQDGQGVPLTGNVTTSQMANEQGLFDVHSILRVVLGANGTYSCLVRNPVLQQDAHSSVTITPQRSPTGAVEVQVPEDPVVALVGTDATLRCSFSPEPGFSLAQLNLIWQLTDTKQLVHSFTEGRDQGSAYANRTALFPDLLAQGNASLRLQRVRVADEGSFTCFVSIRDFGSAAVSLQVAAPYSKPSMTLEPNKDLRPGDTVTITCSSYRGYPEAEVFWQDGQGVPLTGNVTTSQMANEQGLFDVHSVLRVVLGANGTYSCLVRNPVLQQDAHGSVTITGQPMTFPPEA

Kd [1]: 0.49 nM
B1: XENP38098 (LB_1002, Bivalent) (antibody, V domains shown)
VH: EVQLVESGGGLVKPGGSLRLSCAASGFTFSSYSMNWVRQAPGKGLEWVSSISSSSSYIYYADSVKGRFTISRDNAKNSLYLQMNSLRAEDTAVYYCARGAPMGAAAGWFDPWGQGTLVTVSS
VL: DIQMTQSPSSVSASVGDRVTITCRASQGISSWLAWYQQKPGKAPKLLIYAASSLQSGVPSRFSGSGSGTDFTLTISSLQPEDFATYYCQQGVSFPRTFGGGTKVEIKR

Kd [1]: 0.42 nM
B2: XENP38097 (LB_1001, Bivalent) (antibody, V domains shown)
VH: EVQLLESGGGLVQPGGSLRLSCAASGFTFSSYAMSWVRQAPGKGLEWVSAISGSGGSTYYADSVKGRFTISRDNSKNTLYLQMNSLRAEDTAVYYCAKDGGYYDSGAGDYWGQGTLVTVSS
VL: DIQMTQSPSSVSASVGDRVTITCRASQGIDSWLAWYQQKPGKAPKLLIYAASSLQSGVPSRFSGSGSGTDFTLTISSLQPEDFATYYCQQGVSYPRTFGGGTKVEIKR

Kd [1]: 0.52 nM
B3: XENP38093 (1D2B4, Bivalent) (antibody, V domains shown)
VH: EVQLLESGGGLVQPGGSLRLSCAASGFTFSSFGMSWVRQAPGKGLEWVSTISGSGSTTYYADSVKGRFTISRDNSKNTLYLQMNSLRAEDTAVYYCAKGVFSEWHYYFDYWGQGTLVTVSS
VL: not shown

Kd (XENP38100 (1D2B4) [2]): 5.05 nM
B4: cynomolgus NKG2D (receptor)
chain: FLNSLFNQEVQIPLTESYCGPCPKNWICYKNNCYQFFNESKNWYESQASCMSQNASLLKVYSKEDQDLLKLVKSYHWMGLVHIPTNGSWQWEDGSILSPNLLTIIEMQKGDCALYASSFKGYIENCSIPNTYICMQRTV

Kd (XENP38100 (1D2B4) [3]): 10.4 nM
B5: human NKG2D (Fc fusion)
chain: FLNSLFNQEVQIPLTESYCGPCPKNWICYKNNCYQFFDESKNWYESQASCMSQNASLLKVYSKEDQDLLKLVKSYHWMGLVHIPTNGSWQWEDGSILSPNLLTIIEMQKGDCALYASSFKGYIENCSTPNTYICMQRTV

Kd (NKG2D): 28.8 nM
B6: XENP40557 B7H3 Fab x NKG2D scFv (mAb-scFv) (antibody)
chain 1: EVQLLESGGGLVQPGGSLRLSCAVSGFSLSSYGVIWVRQAPGKGLEYVSWVSSGGSTNYASSVKGRFTISRDTSKNTVYLQMNSLRAEDTAVYFCARGATNSGTDIWGPGTLVTVSSASTKGPSVFPLAPSSKSTSGGTAALGCLVKDYFPEPVTVSWNSGALTSGVHTFPAVLQSSGLYSLSSVVTVPSSSLGTQTYICNVNHKPSDTKVDKKVEPKSCDKTHTCPPCPAPPVAGPSVFLFPPKPKDTLMISRTPEVTCVVVDVKHEDPEVKFNWYVDGVEVHNAKTKPREEEYNSTYRVVSVLTVLHQDWLNGKEYKCKVSNKALPAPIEKTISKAKGQPREPQVYTLPPSREEMTKNQVSLTCDVSGFYPSDIAVEWESDGQPENNYKTTPPVLDSDGSFFLYSKLTVDKSRWEQGDVFSCSVMHEALHNHYTQKSLSLSPGK
chain 2: not shown
chain 3: DIVMTQSPSSLSASVGDRVTITCRASQSINSWLSWYQQKPGKPPKLLIYGASNLASGVPSRFKGSGSGTDFTLTISSLQPEDFATYYCQNNYGIIAAGATFGGGTKVEIKRTVAAPSVFIFPPSDEQLKSGTASVVCLLNNFYPREAKVQWKVDNALQSGNSQESVTEQDSKDSTYSLSSTLTLSKADYEKHKVYACEVTHQGLSSPVTKSFNRGEC

Kd [4]: 190 nM
Kd [5]: 360 nM
B7: XENP42654 (bispecific antibody)
heavy: EVQLLESGGGLVQPGGSLRLSCAVSGFSLSSYGVIWVRQAPGKGLEYVSWVSSGGSTNYASSVKGRFTISRDTSKNTVYLQMNSLRAEDTAVYFCARGATNSGTDIWGPGTLVTVSSASTKGPSVFPLAPSSKSTSGGTAALGCLVKDYFPEPVTVSWNSGALTSGVHTFPAVLQSSGLYSLSSVVTVPSSSLGTQTYICNVNHKPSDTKVDKKVEPKSCDKTHTCPPCPAPELLGGPSVFLFPPKPKDTLMISRTPEVTCVVVDVSHEDPEVKFNWYVDGVEVHNAKTKPREEEYNSTYRVVSVLTVLHQDWLNGKEYKCKVSNKALPAPIEKTISKAKGQPREPQVYTLPPSREEMTKNQVSLTCDVSGFYPSDIAVEWESDGQPENNYKTTPPVLDSDGSFFLYSKLTVDKSRWEQGDVFSCSVMHEALHNHYTQKSLSLSPGK
chain: not shown
light: DIVMTQSPSSLSASVGDRVTITCRASQSINSWLSWYQQKPGKPPKLLIYGASNLASGVPSRFKGSGSGTDFTLTISSLQPEDFATYYCQNNYGIIAAGATFGGGTKVEIKRTVAAPSVFIFPPSDEQLKSGTASVVCLLNNFYPREAKVQWKVDNALQSGNSQESVTEQDSKDSTYSLSSTLTLSKADYEKHKVYACEVTHQGLSSPVTKSFNRGEC

Kd (NKG2D): 7.72 nM
B8: XENP40376 B7H3 Fab x NKG2D scFv (1+1) (antibody)
chain 1: EVQLLESGGGLVQPGGSLRLSCAVSGFSLSSYGVIWVRQAPGKGLEYVSWVSSGGSTNYASSVKGRFTISRDTSKNTVYLQMNSLRAEDTAVYFCARGATNSGTDIWGPGTLVTVSSASTKGPSVFPLAPSSKSTSGGTAALGCLVKDYFPEPVTVSWNSGALTSGVHTFPAVLQSSGLYSLSSVVTVPSSSLGTQTYICNVNHKPSDTKVDKKVEPKSCDKTHTCPPCPAPPVAGPSVFLFPPKPKDTLMISRTPEVTCVVVDVKHEDPEVKFNWYVDGVEVHNAKTKPREEEYNSTYRVVSVLTVLHQDWLNGKEYKCKVSNKALPAPIEKTISKAKGQPREPQVYTLPPSREEMTKNQVSLTCDVSGFYPSDIAVEWESDGQPENNYKTTPPVLDSDGSFFLYSKLTVDKSRWEQGDVFSCSVMHEALHNHYTQKSLSLSPGK
chain 2: not shown
chain 3: DIVMTQSPSSLSASVGDRVTITCRASQSINSWLSWYQQKPGKPPKLLIYGASNLASGVPSRFKGSGSGTDFTLTISSLQPEDFATYYCQNNYGIIAAGATFGGGTKVEIKRTVAAPSVFIFPPSDEQLKSGTASVVCLLNNFYPREAKVQWKVDNALQSGNSQESVTEQDSKDSTYSLSSTLTLSKADYEKHKVYACEVTHQGLSSPVTKSFNRGEC

Kd (B7H3): 0.5 nM
B9: 38E2_H2_L1.1 (antibody, V domains shown)
VH: EVQLLESGGGLVQPGGSLRLSCAVSGFSLSSYGVIWVRQAPGKGLEYVSWVSSGGSTNYASSVKGRFTISRDTSKNTVYLQMNSLRAEDTAVYFCARGATNSGTDIWGPGTLVTVSS
VL: DIVMTQSPSSLSASVGDRVTITCRASQSINSWLSWYQQKPGKPPKLLIYGASNLASGVPSRFKGSGSGTDFTLTISSLQPEDFATYYCQNNYGIIAAGATFGGGTKVEIK

Kd (B7H3): 6.1 nM
B10: 2E4A3_H1.22_L1 (antibody, V domains shown)
VH: QVQLVQSGAEVKKPGASVKVSCKASGYIFTNNYMHWVRQAPGQGLEWMGIISPSVGRTAYAQKFQGRVTMTRDTSTSTVYMELSSLRSEDTAVYYCARGGGSSPRLDYWGQGTLVTVSS
VL: not shown
